# Measurements published in patent US20240084003A1 (SIMCERE ZAIMING PHARMACEUTICAL, published 2024).
# T1: human CD22, endogenous on Raji cells (human, UniProt P20273 20-847)
# T1 construct: whole, on cells; Endogenous protein of the Raji cell line
# T1 sequence (looked up): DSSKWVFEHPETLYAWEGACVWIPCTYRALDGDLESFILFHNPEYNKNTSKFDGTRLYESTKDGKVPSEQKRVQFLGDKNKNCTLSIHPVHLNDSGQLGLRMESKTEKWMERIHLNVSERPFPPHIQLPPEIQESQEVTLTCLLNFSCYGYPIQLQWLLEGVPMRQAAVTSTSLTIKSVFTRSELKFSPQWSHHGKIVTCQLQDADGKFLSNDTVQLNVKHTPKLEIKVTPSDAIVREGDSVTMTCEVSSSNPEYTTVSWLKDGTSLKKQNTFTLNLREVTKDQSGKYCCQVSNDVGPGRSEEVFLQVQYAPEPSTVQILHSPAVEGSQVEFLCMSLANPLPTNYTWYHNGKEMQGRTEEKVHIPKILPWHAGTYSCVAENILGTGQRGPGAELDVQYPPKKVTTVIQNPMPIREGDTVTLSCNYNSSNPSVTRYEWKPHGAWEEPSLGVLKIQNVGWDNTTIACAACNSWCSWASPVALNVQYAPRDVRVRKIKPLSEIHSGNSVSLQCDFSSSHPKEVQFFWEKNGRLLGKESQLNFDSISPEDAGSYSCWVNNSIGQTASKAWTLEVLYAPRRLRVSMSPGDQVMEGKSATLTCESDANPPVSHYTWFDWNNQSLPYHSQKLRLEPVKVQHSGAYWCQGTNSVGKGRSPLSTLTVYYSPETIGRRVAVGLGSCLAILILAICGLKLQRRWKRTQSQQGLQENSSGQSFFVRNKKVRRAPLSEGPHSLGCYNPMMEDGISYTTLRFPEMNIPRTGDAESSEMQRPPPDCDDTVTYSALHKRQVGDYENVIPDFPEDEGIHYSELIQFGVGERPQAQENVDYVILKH
# T2: murine CD22 protein (ACROBiosystems, SI2-M52Ha) (murine, UniProt P35329 22-708)
# T2 construct: extracellular domain; also called murine CD22-ECD; murine CD22-ECD-His
# T2 sequence (looked up): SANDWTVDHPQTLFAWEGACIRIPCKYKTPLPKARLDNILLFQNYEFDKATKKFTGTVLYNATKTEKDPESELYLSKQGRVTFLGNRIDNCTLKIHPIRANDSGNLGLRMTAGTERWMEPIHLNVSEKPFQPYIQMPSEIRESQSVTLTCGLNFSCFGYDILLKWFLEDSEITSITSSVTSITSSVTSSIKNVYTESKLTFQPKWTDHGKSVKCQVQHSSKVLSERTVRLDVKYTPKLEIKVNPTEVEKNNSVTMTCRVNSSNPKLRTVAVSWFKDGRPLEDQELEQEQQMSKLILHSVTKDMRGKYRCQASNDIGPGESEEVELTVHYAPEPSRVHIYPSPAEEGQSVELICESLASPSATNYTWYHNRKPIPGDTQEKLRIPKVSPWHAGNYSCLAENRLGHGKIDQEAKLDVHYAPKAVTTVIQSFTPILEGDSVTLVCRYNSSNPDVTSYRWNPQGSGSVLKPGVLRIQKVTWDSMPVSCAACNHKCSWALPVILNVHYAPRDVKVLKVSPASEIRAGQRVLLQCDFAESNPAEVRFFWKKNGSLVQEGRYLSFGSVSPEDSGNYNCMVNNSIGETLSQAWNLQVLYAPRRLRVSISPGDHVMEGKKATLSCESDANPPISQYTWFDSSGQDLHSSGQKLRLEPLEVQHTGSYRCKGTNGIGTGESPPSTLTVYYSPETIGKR
# T3: human CD22, full length, on CHO-K1-human CD22 2C4 cells (human, UniProt P20273 20-847)
# T3 construct: Full-length human CD22 (NCBI NP_001762.2) stably transfected into CHO-K1
# T3 sequence: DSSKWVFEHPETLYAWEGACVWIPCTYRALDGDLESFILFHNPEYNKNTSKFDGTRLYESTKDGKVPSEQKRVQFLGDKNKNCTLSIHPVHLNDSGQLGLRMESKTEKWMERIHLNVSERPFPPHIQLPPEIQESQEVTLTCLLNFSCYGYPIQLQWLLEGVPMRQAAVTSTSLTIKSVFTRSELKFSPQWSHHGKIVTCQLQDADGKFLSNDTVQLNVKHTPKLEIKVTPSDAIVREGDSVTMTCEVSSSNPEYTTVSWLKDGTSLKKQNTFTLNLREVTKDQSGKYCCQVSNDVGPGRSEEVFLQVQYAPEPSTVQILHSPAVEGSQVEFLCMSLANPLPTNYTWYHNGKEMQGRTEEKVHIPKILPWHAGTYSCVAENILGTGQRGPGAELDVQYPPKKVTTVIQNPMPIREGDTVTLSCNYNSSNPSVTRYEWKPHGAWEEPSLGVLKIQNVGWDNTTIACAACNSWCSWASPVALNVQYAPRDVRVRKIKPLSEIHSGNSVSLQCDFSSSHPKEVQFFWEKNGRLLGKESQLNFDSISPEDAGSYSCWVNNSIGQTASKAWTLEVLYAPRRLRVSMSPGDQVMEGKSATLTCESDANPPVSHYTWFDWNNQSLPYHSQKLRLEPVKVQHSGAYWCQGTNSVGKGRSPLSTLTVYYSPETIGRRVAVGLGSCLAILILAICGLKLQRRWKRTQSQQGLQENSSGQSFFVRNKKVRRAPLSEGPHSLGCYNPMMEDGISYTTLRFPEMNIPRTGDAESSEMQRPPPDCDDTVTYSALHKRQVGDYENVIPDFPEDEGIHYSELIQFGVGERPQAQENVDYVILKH
# What was measured:
# [1] = molecular target: T1, human CD22, endogenous on Raji cells; assay: FACS, Raji cells
# Description: (§1) The required cells were scale-up cultured in a T-75 cell culture flask to the logarithmic growth phase. For the adherent cell CHO-K1, the medium was aspirated, the cells were washed 2 times with PBS buffer, and then digested with trypsin. After the digestion was terminated, the cells were washed 2 times with PBS buffer. For suspension cell Raji, the medium supernatant was directly centrifuged and discarded, and the cell pellet was washed 2 times with PBS. After counting the cells in the previous step, the cell pellet was resuspended with [PBS+2% (w/w) BSA] blocking solution to 2×10⁶ cells/ml, and added to a 96-well FACS reaction plate at 50 μl/well, and then the chimeric antibody test sample was added at 50 μl/well, and incubated on ice for 2 hours. The mixture was centrifuged and washed 3 times with PBS buffer, Alexa Flour 488-labeled secondary antibody (purchased from Invitrogen, catalog number: A-11013) was added at 50 μl/well, and incubated on ice for 1 hour. The obtained mixture was centrifuged and washed 5 times with PBS, and FACS (FACS Canto™, purchased from BD Company) was used for detection and result analysis. Data analysis was performed by software (CellQuest) to obtain the mean fluorescence density (MFI)of the cells. And then software (GraphPad Prism8) was used for analysis, data fitting, and EC50 value calculation. […] The same method was used to detect the binding of the chimeric antibodies to endogenous CD22-negative cell MoLT4 cells (purchased from ATCC, CRL-1582) and CHO-K1 cells.
# [2] = molecular target: T2, murine CD22 protein (ACROBiosystems, …); assay: ELISA, coated murine CD22, 100 nM Ab
# How it was run: (§2)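 Direct ELISA: chimeric antibody binding to CD22 coated at 2 μg/mL, with a 37° C, 2 h antibody step and HRP/TMB detection.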
# [3] = molecular target: T2, murine CD22 protein (ACROBiosystems, …); assay: ELISA, coated murine CD22, 0.001 nM Ab
# How it was run: as §2
# [4] = molecular target: T2, murine CD22 protein (ACROBiosystems, …); assay: ELISA, coated murine CD22, 0.1 nM Ab
# How it was run: as §2
# [5] = molecular target: T2, murine CD22 protein (ACROBiosystems, …); assay: ELISA, coated murine CD22, 0.01 nM Ab
# How it was run: as §2
# [6] = molecular target: T2, murine CD22 protein (ACROBiosystems, …); assay: ELISA, coated murine CD22, 0.00001 nM Ab
# How it was run: as §2
# [7] = molecular target: T2, murine CD22 protein (ACROBiosystems, …); assay: ELISA, coated murine CD22, 0.0001 nM Ab
# How it was run: as §2
# [8] = molecular target: T2, murine CD22 protein (ACROBiosystems, …); assay: ELISA, coated murine CD22, 10 nM Ab
# How it was run: as §2
# [9] = molecular target: T3, human CD22, full length, on …; assay: FACS, CHO-K1-human CD22 2C4 cells
# Description: as §1
Binder,EC50 [1] [nM],Maximum mean fluorescence intensity [1] [MFI],OD450 [2] [OD450],OD450 [3] [OD450],OD450 [4] [OD450],OD450 [5] [OD450],OD450 [6] [OD450],OD450 [7] [OD450],OD450 [8] [OD450],EC50 [9] [nM],Maximum mean fluorescence intensity [9] [MFI]
"F2.343.16 human-murine chimeric antibody (antibody, human IgG1, lambda, V domains shown, Chimeric, human IgG1 / lambda; VL tied by name) VH: QVQLKQSGPGLVQPSQSLSITCTVSGFSLTGYGVQWVRQSPGKGLEWLGVIWGGGGTDYNAAFISRLNIIKDNSKSQVFFKMNSLQADDTAIYYCARYSKYGHFDVWGTGTAVTVSS VL: QAVVTQESALTTSPGETVTLTCRSSTGAVTTSNYANWVQEKPDHLFTGLIGGTYNRVPGVPARFSGSLIGDKAALTITGAQTEDEAIYFCALWYSNHFWVFGGGTKLTVLG",0.8,19300,0.07,0.05,0.05,0.05,0.06,0.05,0.06,1.15,50200
"F2.127.11 human-murine chimeric antibody (antibody, human IgG1, lambda, V domains shown, Chimeric, human IgG1 / lambda; VL tied by name) VH: QVTLKESGPGILQPSQTLSLTCSFSGFSLSTFGMGVGWIRQPSGKGLEWLAHIWWDDDKHYNPALKSRLTISKDTSRNQVFLKIANVDTADGATYFCARDNWVSSLDYWGQGTSVIVSS VL: QPVITQSSSASFSLGASAELTCTLSSQHSTYTIEWYQQQPLKPPKYVMGLKKDGSHSTGDGIPDRFSGSSSGADRYLSISNIQPEDEAIYICGVSDTIKEQFVYVFGGGTKVTVLG",0.59,24400,0.1,0.05,0.06,0.05,0.06,0.06,0.07,1.22,58500
"F2.99.1 human-murine chimeric antibody (antibody, human IgG1, lambda, V domains shown, Chimeric, human IgG1 / lambda; VL tied by name) VH: QVTLKESGPGILQPSQTLSLTCSFSGFSLSTFPMGVGWIRQPSGKGLEWLAHIWWDDDEYYNPVLKSRLTISKDTSKKQVYLRIANVDTVDTATYYCTRANWDRWYFDVWGTGTTVTVSS VL: QLVLTQSSSASFSLGASAKLTCTLSRQHSAYTIEWYQQQPLKPPKYVMEVKKDGSHSTGDGIPDRFSGSSSGADRYLSISNIQPEDEAIYICGVGDTIKEHFVFGGGTKVTVLG",0.59,18100,0.07,0.05,0.05,0.06,0.06,0.05,0.06,0.83,44800
"F2.55.1 human-murine chimeric antibody (antibody, human IgG1, lambda, V domains shown, Chimeric, human IgG1 / lambda; VL tied by name) VH: QVTLKESGPGILQPSQTLSLTCSFSGFSLSTFPLGVGWIRQPSGKGLEWLAHVWWNDDDYYNPALKSRLTISKDTSNTRVFLSVASVDTAETATYYCARLNWDRWYFDVWGTGTTVTVSS VL: QLVLTQSSSASFSLGASAKLTCTLSSQHSAYTVEWYQQQPLKPPKYVMELKKDGSHSTGDGIPDRFSGSSSGADRYLSISNIQPEDEAIYICGVGDTVKEQFVFGGGTKVTVLG",0.41,18600,0.09,0.05,0.06,0.05,0.06,0.06,0.06,0.82,42000
"F2.42.9 human-murine chimeric antibody (antibody, human IgG1, lambda, V domains shown, Chimeric, human IgG1 / lambda; VL tied by name) VH: QVTLKESGPGILQPSQTLSLTCSFSGFSLSTFDRGVGWIRQPSGKGLEWLAHIWWNDKKFYNPVLKSRLTISKDTSKNQVFLTIANVDSADTATYSCARIVWDKYYFDYWGQGIPLTVSS VL: QLVLTQSSSASFSLGASAKLTCTLSSQHSAYTIEWYQQQPLKPPKFVMDLKKDGSHSTGDGIPARFSGSSSGADRYLTISNIQPEDEAIYICGVGDTIKEQYVFGGGTKVTVLG",0.33,16700,0.09,0.07,0.08,0.07,0.08,0.08,0.08,0.87,41000
"F2.205.9 human-murine chimeric antibody (antibody, human IgG1, lambda, V domains shown, Chimeric, human IgG1 / lambda; VL tied by name) VH: QVTLKESGPGILQPSQTLSLTCSFSGFSLSTSGMGVGWIRQPSGKGLEWLAHIWWDDDEYYNPALKSRLTISKDTSKNQVFLKIANVDTADTATYYCARISIPYGYYDWFFDVWGTGTTVTVSA VL: QAVVTQESALTTSPGETVTLTCRSSTGAVTTRNYANWVQEKPDHLFTGLIGGTNNRAPGVPARFSGSLIGDKAALTITGAQTEDEAIYFCALWYSNHFIFGSGTKVTVLG",0.38,15500,0.07,0.05,0.05,0.05,0.06,0.05,0.06,0.72,40200
